Assay results from patent US10556936B2, “Immunogenic proteins and fragments thereof from allergenic mites” (ALK-ABELLÓ A/S, priority 2016, dated 2020).

What was measured:
Type in all cases: cell-based, human
[1] = system: T cell lines obtained from HDM allergic individuals and non-allergics; assay: In vitro T cell proliferation test in T cell lines (Example 3); details: 0.5 or 2 ug/ml, 72 h; for % responders of in-vitro T cell proliferation test, Allergic: T cell lines from HDM allergic individuals (n=30); for % responders of in-vitro T cell proliferation test, Non-allergics: T cell lines from non-allergics (n=8)
Description: (§1) This example relates to the further testing of immunogenicity of the proteins identified in Example 1. Their ability to react with IgE antibodies in HDM allergic individuals, to stimulate in vitro T cell proliferation of HDM allergic individuals and non-allergics, and to stimulate ex vivo cytokine production of HDM allergic individuals and non-allergics. The following tests were used: • Basophil Activation Test (BAT) was used as a predictive in vitro assay for indication of safety/immediate hypersensitivity reactions. BAT test was carried out using blood from HDM allergic individuals (n=14), and by use of different concentrations of test proteins or the major house dust mite allergens (Der p 1, Der f 1, Der p 2 or Der f 2, e.g. a concentration of 1, 10, 100 or 1000 ng/ml. • In vitro T cell reactivity determined in T cell lines obtained from HDM allergic individuals (n=30) and non-allergics (n=8): Determined by establishment of HDM specific T-cell lines according to standard methods. In short, PMBCs from HDM allergic donors were cultured for 3 weeks in the presence of house dust mite allergen extract. The responses to proteins at a concentration of 0.5 ug/ml or 2 ug/ml of the test protein or the major house dust mite allergens (Der p 1, Der f 1, Der p 2 or Der f 2) were assessed by proliferation in a standard 72 h T cell proliferation assay, as described in Henmar H et al., Clin Exp Immunol 2008; 153(3):316-23. […]. • Ex vivo stimulation of PBMC cells obtained from mite allergic patients (n=16) and non-allergics (n=6): Determined by measuring the production of the cytokines; IFN-gamma, IL-9, IL-10, IL-17 and IL-31 following stimulation with test protein in concentration up to 10 ug/ml. Freshly isolated PBMC 5×10^6/ml were cultured with a test protein for 5 days and cell supernatant were harvested and stored at −80° C. Cytokines of the supernatants were measured using ProcartaPlex Multiplex Immunoassays with MAGPIX Multiplex Reader according manufactory protocol.

[2] = system: PBMC cells obtained from mite allergic patients and non-allergics; assay: Ex vivo stimulation of PBMC: cytokine production (IFN-gamma, IL-9, IL-10, IL-17, IL-31)
Description: as §1

[3] = system: basophils in whole blood from HDM allergic donors; assay: Basophil Activation Test (BAT); details: blood from HDM allergic individuals (n=14)
Experimental: Basophil Activation Test (BAT) was used as a predictive in vitro assay for indication of safety/immediate hypersensitivity reactions. The BAT assay is a widely used diagnostic test that is also used for evaluation of allergenicity of allergen derived components. In short: whole blood from HDM allergic donors was stimulated for 1 h with the proteins, and the increased expression of activation markers on the surface of basophils were measured by flow cytometry. The BAT test was carried out using different concentrations of the proteins and the allergens Der p 2 and Der p 1 was used as controls and tested in the same concentration rates.
as §1

| Molecule | % responders of in-vitro T cell proliferation test, Allergic [1] [%] | % responders of in-vitro T cell proliferation test, Non-allergics [1] [%] | % HDM allergic individuals with cytokine production in ex-vivo T cell assay IL-5 [2] [%] | % HDM allergic individuals with cytokine production in ex-vivo T cell assay IL-9 [2] [%] | % HDM allergic individuals with cytokine production in ex-vivo T cell assay IL-10 [2] [%] | % HDM allergic individuals with cytokine production in ex-vivo T cell assay IL-13 [2] [%] | % HDM allergic individuals with cytokine production in ex-vivo T cell assay IL-17 [2] [%] | % HDM allergic individuals with cytokine production in ex-vivo T cell assay IL-31 [2] [%] | % HDM allergic individuals with cytokine production in ex-vivo T cell assay INF-g [2] [%] | % non-allergic individuals with cytokine production in ex-vivo T cell assay IL-5 [2] [%] | % non-allergic individuals with cytokine production in ex-vivo T cell assay IL-9 [2] [%] | % non-allergic individuals with cytokine production in ex-vivo T cell assay IL-10 [2] [%] | % non-allergic individuals with cytokine production in ex-vivo T cell assay IL-13 [2] [%] | % non-allergic individuals with cytokine production in ex-vivo T cell assay IL-17 [2] [%] | % non-allergic individuals with cytokine production in ex-vivo T cell assay IL-31 [2] [%] | % non-allergic individuals with cytokine production in ex-vivo T cell assay INF-g [2] [%] | # of individuals of 14 with positive BAT test ([3]; 1 ng/ml) | # of individuals of 14 with positive BAT test ([3]; 10 ng/ml) | # of individuals of 14 with positive BAT test ([3]; 100 ng/ml) | # of individuals of 14 with positive BAT test ([3]; 1000 ng/ml) |
| --- | --- | --- | --- | --- | --- | --- | --- | --- | --- | --- | --- | --- | --- | --- | --- | --- | --- | --- | --- | --- |
| A014: house dust mite protein; SEQ ID NO: 32 (Der f), 33 (Der p) (protein) IEQVHIALGSNETEIIVTWTEPHKHDDKTSDAVVYYGQAKSSFDQKVKAISEYFKDDKTKYTTYRALLTGLLPGTEYHYRIQMDDLESSIFEFKTLKTGEENWLPRFAIYGDLGYVNEQSLPYLKKDVEQNLFDVIFHIGDFAYDLNDEHGKVGHHFMRSIEPVASKVAYMTCPGNHERHDNFSHYDSRFSMIGDRSQPIHSDKLNKRLNNHFHSMTIGPATIILFSTEYYYYTKYGWQQIEHQYRWLEQELKRANENRQKHPWIIVMGHRPLYCLKMGDDSCDHQTMERKEIRQGIRMHDEGERQYGLEDLFFKYGVDIQFYGHEHFYARLFPIYKYKMYNGTKSKNPYDHPGAPIHITTGSAGNKELHPEFNHLNDWVAEHFYDYGYTRLMFEDKYRIRLQQISDDQHGKVLDEIEIVKSSPQPHWMNVEHH | 43 | 0 | 6 | 0 | 25 | 6 | 31 | 0 | 13 | 0 | 0 | 33 | 0 | 33 | 0 | 33 | 0 | 0 | 0 | 0 |
| A012: house dust mite protein; SEQ ID NO: 22 (Der p), 38 (Der f), 310 (Blo t) (protein) QSRDRNDKPYRIVCYWGTWAFYRPASGKFQAENVNPNLCTHIMYGFAKLQNNKIALYDPDLDDGDEDWNSGLQWGHGMIRRMVNLRTYNPHLTTMISLGGWNEGSDKYSIMVRDPASRKIFIQSVLHLLAEFDLDGLDFDWEYPAMQASGDSDRKPGRAEDKEDFVTLLRELHEAFQPHGYVLSSAVSAGKPTIDRAYNIPEVSKYLDFINLMSYDYHGGWESHTGHNAPLNSYKNANELDKEFTVTYSVEYWLNHGVDPKKLVLGIPLYGRTFTLAGSEHGIGAPTIGKGGESGTITRTIGMLGYNEICTMIKQGWQLYRDEIERIPYAVHANQWIGYDDRESVNEKLNLLMAKHLGGAMVWSIDTDDFVGNCVGVKYPLLRSISKKLNNVDGPDPDIKRYHYHTSTAKPHTDGTTSTHHDHKTTTTKHHKTTQPHHKTTQPHHTQTITTTTERPHGKFQCHQAGFFADPENPRKFHQCVDFGGHLKDYEFMCGEGTHYDEKLHICVR | 39 | 13 | 69 | 25 | 19 | 44 | 19 | 0 | 0 | 0 | 0 | 67 | 0 | 33 | 0 | 17 | 0 | 0 | 0 | 0 |
| A013: house dust mite protein; SEQ ID NO: 36 (Der f), 37 (Der p), 311 (Blo t) (protein) DTPANCTYEDIKGLWLFEETEPIKDRWEKCPEHQQQREKYSKKIFIRLDFPNVAVDKFGNIGEWTMIYNQGFEVKINYRKYFAFSAYERKSENNVLSYCHKTQPGWSHDVLGNNWACYVGHKVNNWNDDDVSKTTTVGAEKFPVKQHSERELYLQNINVEHILSQKHIDHLNSQQKSWKAIVYPDLQSKSIEHLIQMAGGRKSRIINRPKPLRATEQQKQLARSLPESFDWRNLNGIDYVSPVRDQGKCGSCYTFASMAMLESRIRIQTNNTFKPIFSTQEVVDCSEYSQGCDGGFSYLIAGKYAQDFGVIDESCYPYKGVTGKCQNQQNFNQTNEKCKQRTYTIDYKYVGGYFGACNEEAMQIELVQNGPIAVGFEVYGDFFGYSEGIYSHQPSNESNDQHQQIKAEFNPFEMTNHAVLIVGYGKDKKTGEKYWIVKNSWGKQWGMDGYFWMRRGTDECAIESLAMAATPIPN | 18 | 13 | 50 | 25 | 38 | 38 | 6 | 0 | 0 | 0 | 0 | 0 | 0 | 0 | 0 | 0 | 0 | 0 | 0 | 0 |
| A016: house dust mite protein; SEQ ID NO: 28 (Der f), 29 (Der p) (protein) MVKIGINGFGRIGRLVLRAAIKKGVEVAAINDPFLDVKYMVYMFKFDSTHGRYQGEVKEEGGLLVVDGQKIQVFQERNPAEIPWGKVGADYVVESTGVFTTIEKAKAHLAGGAKKVIISAPSADAPMYVMGVNHDKYDPKQQIISNASCTTNCLAPLAKVINDKFGIENGLMTTVHAITATQKTVDGPSGKLWRDGRGAGQNIIPASTGAAKAVGKVIPELNGKLTGMALRVPVPDVSVVDLTVTLKNPASYDEIKAAVKAAAESDHWKGILEYTDEEVVSSDFISDTHSSIFDAKAGIALTPTFVKLIAWYDNEFGYSNRVVDLIKYVASK | 7 | 0 | 6 | 0 | 25 | 13 | 13 | 0 | 6 | 0 | 0 | 0 | 0 | 17 | 0 | 0 | 0 | 0 | 0 | 0 |
